Here are results for 37 sequences from the Immune Epitope Database (IEDB).

Some targets named below: HLA-A*02:02; HLA-A*02:03; HLA-A*02:06.
Assay in all cases: IEDB peptide-MHC binding, purified MHC/competitive/radioactivity; filed as Kd, often an IC50 or EC50 that approximates it; ≥ and ≤ were set here for values at or beyond the usual limits of such assays
Setting [1] is: source organism: Vaccinia virus WR.
[2] abbreviates: source organism: SARS coronavirus Tor2.
[3] abbreviates: source organism: Mammarenavirus lassaense.
The mark [4] stands for this setting: source organism: Mammarenavirus brazilense.
Where [5] appears, read: source organism: Dengue virus 3 Martinique/1243/1999.

What is called Kd is the concentration at which binding is half-saturated.

On to ELLEMKYAL, for which the figures for the Kd with HLA-A*02:02 (setting [1]), with HLA-A*02:03 (setting [1]) and in the assay with HLA-A*02:06 (setting [1]) were 952 nM, 863 nM and 6010 nM, respectively.

For WLMWFIISIV, the dissociation constant Kd with HLA-A*02:02 (setting [2]) stood at 246 nM; with HLA-A*02:03 (setting [2]) it was 4.72 nM; with HLA-A*02:06 (setting [2]) it was 107 nM.

For the sequence LLMEGLKLLS, the Kd was found to be 78.3 nM in the assay with HLA-A*02:02 (setting [3]), 39.5 nM in the assay with HLA-A*02:03 (setting [3]) and 1750 nM in the assay with HLA-A*02:06 (setting [3]).

With AVTLNRIKI, the Kd was found to be 10800 nM with HLA-A*02:02 (setting [1]), 3340 nM in the assay with HLA-A*02:03 (setting [1]) and 7610 nM with HLA-A*02:06 (setting [1]).

In the case of RLYDYFTRVT, the Kd amounted to 2450 nM with HLA-A*02:02 (setting [1]), 551 nM with HLA-A*02:03 (setting [1]) and 691 nM with HLA-A*02:06 (setting [1]).

Consider YVVTTDISEM, for which the Kd with HLA-A*02:06 (source organism: Dengue virus 1 Brazil/97-11/1997) was determined as 1160 nM.

As for YTEAAAATCA, the results for the Kd in the assay with HLA-A*02:02 (setting [1]), with HLA-A*02:03 (setting [1]) and with HLA-A*02:06 (setting [1]) were not below 36500 nM, 16100 nM and 7150 nM, respectively.

On to VIADYNYKL, for which the Kd with HLA-A*02:02 (setting [2]) is 0.477 nM; in the assay with HLA-A*02:03 (setting [2]), 115 nM; in the assay with HLA-A*02:06 (setting [2]), 69.1 nM.

Take ELPYVGDTSM: the dissociation constant (Kd) in the assay with HLA-A*02:02 (setting [1]) was 4130 nM; with HLA-A*02:03 (setting [1]), 14200 nM; with HLA-A*02:06 (setting [1]) it was not below 29900 nM.

Take VATFRDMLL: the equilibrium dissociation constant (Kd) with HLA-A*02:02 (setting [1]) turned out to be 2530 nM; with HLA-A*02:03 (setting [1]), 9940 nM; with HLA-A*02:06 (setting [1]) it was 7720 nM.

SINITPDDGL: the Kd was 413 nM with HLA-A*02:02 (setting [1]), 1230 nM with HLA-A*02:03 (setting [1]) and 0.343 nM with HLA-A*02:06 (setting [1]).

With SISSVLTIL, the Kd in the assay with HLA-A*02:02 (setting [1]) was 1.25 nM; with HLA-A*02:03 (setting [1]) it was 3.98 nM; with HLA-A*02:06 (setting [1]) it was 110 nM.

Consider VQFSILNNPV, for which the Kd is 131 nM in the assay with HLA-A*02:02 (setting [1]), 369 nM with HLA-A*02:03 (setting [1]) and 186 nM in the assay with HLA-A*02:06 (setting [1]).

Consider YIWKSYVHI, for which the dissociation constant Kd came out at 86.4 nM with HLA-A*02:02 (setting [2]), 12.9 nM in the assay with HLA-A*02:03 (setting [2]) and 8.89 nM with HLA-A*02:06 (setting [2]).

As to VVKDKIKLPT, the Kd was not below 37300 nM in the assay with HLA-A*02:02 (setting [1]), 8600 nM in the assay with HLA-A*02:03 (setting [1]) and not below 29200 nM in the assay with HLA-A*02:06 (setting [1]).

In the case of LLKETIQKDI, the figures for the Kd in the assay with HLA-A*02:02 (setting [1]), with HLA-A*02:03 (setting [1]) and in the assay with HLA-A*02:06 (setting [1]) were 3060 nM, 782 nM and not below 23400 nM, respectively.

With VILPDKIDGL, the figures for the Kd with HLA-A*02:02 (setting [1]), with HLA-A*02:03 (setting [1]) and with HLA-A*02:06 (setting [1]) were 8090 nM, 10800 nM and 240 nM, respectively.

For the sequence EATFIDVHI, the Kd amounted to 1660 nM with HLA-A*02:02 (setting [1]), 862 nM in the assay with HLA-A*02:03 (setting [1]) and 3430 nM with HLA-A*02:06 (setting [1]).

Regarding TAEQLSKYV, the Kd with HLA-A*02:02 (setting [1]) was 5220 nM; in the assay with HLA-A*02:03 (setting [1]), 8900 nM; in the assay with HLA-A*02:06 (setting [1]) it was not below 23900 nM.

Take TISGNIYSA: the results for the Kd with HLA-A*02:02 (setting [1]), with HLA-A*02:03 (setting [1]) and with HLA-A*02:06 (setting [1]) were 84.5 nM, 18.9 nM and 179 nM, respectively.

For STSNVITDQT, the Kd is not below 53600 nM in the assay with HLA-A*02:02 (setting [1]), not below 70400 nM with HLA-A*02:03 (setting [1]) and 10800 nM with HLA-A*02:06 (setting [1]).

On to ATFRDMLLNV, for which the Kd with HLA-A*02:02 (setting [1]) was determined as 7.06 nM; with HLA-A*02:03 (setting [1]), 0.398 nM; with HLA-A*02:06 (setting [1]), 3.03 nM.

For SNPNLFWAV, the figures for the Kd with HLA-A*02:02 (setting [4]), in the assay with HLA-A*02:03 (setting [4]) and with HLA-A*02:06 (setting [4]) were 170 nM, 6150 nM and 34.6 nM, respectively.

On to FVYVSVMNFI, for which the Kd is 76.5 nM in the assay with HLA-A*02:02 (setting [1]), 17.8 nM with HLA-A*02:03 (setting [1]) and 7.5 nM with HLA-A*02:06 (setting [1]).

Turning to MAFILGIIIT, the results for the dissociation constant (Kd) with HLA-A*02:02 (setting [1]), with HLA-A*02:03 (setting [1]) and with HLA-A*02:06 (setting [1]) were 4680 nM, 2830 nM and 10300 nM, respectively.

In the case of FLMSFTILCL, the values for the Kd with HLA-A*02:02 (setting [2]), with HLA-A*02:03 (setting [2]) and with HLA-A*02:06 (setting [2]) were 0.821 nM, 213 nM and 74.4 nM, respectively.

With LLALNDMGKV, the Kd with HLA-A*02:03 (setting [5]) was 15 nM.

Regarding QLSNNKYVL, the equilibrium dissociation constant (Kd) with HLA-A*02:02 (setting [1]) was 78.5 nM; with HLA-A*02:03 (setting [1]), 4940 nM; with HLA-A*02:06 (setting [1]), 10700 nM.

As to KLREVYTQL, in the assay with HLA-A*02:03 (setting [5]), the Kd is 39.1 nM.

As for NCLSLLLSV, the Kd with HLA-A*02:02 (setting [3]) is 48.7 nM; with HLA-A*02:03 (setting [3]), 437 nM; in the assay with HLA-A*02:06 (setting [3]), 630 nM.

For YIRRNMINKL, the equilibrium dissociation constant (Kd) in the assay with HLA-A*02:02 (setting [1]) was found to be 820 nM; in the assay with HLA-A*02:03 (setting [1]), 69.6 nM; with HLA-A*02:06 (setting [1]), 8660 nM.

As for GTIILNKIV, the Kd with HLA-A*02:02 (setting [1]) amounted to 1190 nM; with HLA-A*02:03 (setting [1]), 3400 nM; with HLA-A*02:06 (setting [1]), 1430 nM.

TLILAPTRVV: the Kd with HLA-A*02:03 (source organism: Dengue virus 2 Jamaica/1409/1983) worked out at 42.6 nM.

Regarding IMAFILGIII, the Kd was determined as 632 nM with HLA-A*02:02 (setting [1]), 3160 nM with HLA-A*02:03 (setting [1]) and 3190 nM in the assay with HLA-A*02:06 (setting [1]).

On to QLEELEDEL, for which, in the assay with HLA-A*02:03 (source organism: Homo sapiens), the dissociation constant (Kd) was not below 68400 nM.

Take TLLCVLAAL: the Kd with HLA-A*02:02 (setting [2]) is 8.1 nM; in the assay with HLA-A*02:03 (setting [2]) it was 10.6 nM; with HLA-A*02:06 (setting [2]), 7.98 nM.

In the case of ETQSGALEVL, the Kd amounted to 5310 nM with HLA-A*02:02 (setting [1]), 14500 nM with HLA-A*02:03 (setting [1]) and 1580 nM in the assay with HLA-A*02:06 (setting [1]).
